# Measured values: patent US20260008815A1, “CYCLIC PEPTIDE OR SALT THEREOF, AND USES THEREOF” (FUJIFILM Corporation, priority 2023, published 2026)
# Bridge positions count the residues as written; N and C are the ends. Ends that are not written are not given here. COCH2 = acetyl group that carries the bridge
# Experiments:
# [1] = target: T1, Recombinant Human FGFR2 alpha (IIIc) Fc Chimera Protein (Homo sapiens, UniProt P21802); assay: SPR binding affinity of chemically synthesized cyclic peptide to immobilized FGFR; conditions: SPR binding amount at 10 nmol/L cyclic peptide, 25° C., per one molecule of FGFR; chemically synthesized product
# T1 construct: Fc (chimera); purchased R&D systems 712-FR-050
# Method: The binding affinity of the cyclic peptide to FGFR was evaluated using a surface plasmon resonance (SPR) method.
# (§1) A CM5 sensor chip (Cytiva, 29149603) was set in Biacore-T200 (manufactured by Cytiva) which is a surface plasmon resonance device, and an HBS-EP buffer (Cytiva, BR100826) was added as a running buffer at a flow rate of 10 μL/min to equilibrate the flow channel. Next, 70 μL of a mixed aqueous solution of 0.2 mol/L 1-(3-dimethylaminopropyl)-3-ethylcarbodiimide (EDC) and 0.05 mol/L N-hydroxysuccinimide (NHS) was added to activate the sensor chip. Then, Recombinant Human FGFR2 alpha (IIIc) Fc Chimera Protein CF (R&D systems, 712-FR-050) prepared at 50 nmol/L in an Acetate 4.5 buffer (Cytiva, BR100350) was added thereto to perform immobilization at about 5000 RU. Thereafter, the blocking treatment was performed with an ethanolamine solution. In addition, in another flow channel of the same sensor chip, blocking treatment was performed immediately after activation without immobilizing FGFR.
# A cyclic peptide diluted to 10 nmol/L using HBS-EP was added to each flow channel of the FGFR-immobilized sensor chip produced above at 25° C. for 10 minutes, then HBS-EP was allowed to flow as a running buffer for 30 minutes, and the binding of the cyclic peptide to FGFR was measured. Thereafter, a regeneration treatment of removing the bound cyclic peptide was performed by repeating the flow of a regeneration liquid in which sodium chloride powder was dissolved in Glysine 1.5 (Cytiva, BR100354) to a final concentration of 0.15 mol/L for 1 minute in each flow channel twice. The binding amount of the cyclic peptide was evaluated from the difference between the measured value of Biacore-T200 in the flow channel in which FGFR was immobilized and the measured value of Biacore-T200 in the flow channel in which FGFR was not immobilated, in a case where a 10 nmol/L cyclic peptide was allowed to flow.
# The binding amount of the cyclic peptide evaluated above was normalized to the binding amount of the cyclic peptide molecules per one molecule of FGFR using the molecular weights of the cyclic peptide and FGFR, and the binding affinity to FGFR was evaluated according to the following evaluation criteria. The evaluation result preferably satisfies the evaluation criteria A, B, or C.
# [2] = target: T2, FGFR1 Protein, Human, Recombinant (His Tag) (Homo sapiens, UniProt P11362); assay: SPR FGFR versatility, peptide immobilized; conditions: SPR binding amount at 1 μmol/L FGFR, 25° C., per one molecule of immobilized cyclic peptide
# T2 construct: His; purchased Sino Biological 10616-H08H
# Method: (§2) The binding of the cyclic peptide to various types of FGFRs was evaluated using a surface plasmon resonance (SPR) method.
# as §1, with “a cyclic peptide” for “Recombinant Human FGFR2 alpha (IIIc) Fc Chimera Protein CF (R&D systems, 712-FR-050)”, “to 2 mg/mL” for “at 50 nmol/L”, “HBS-EP” for “an Acetate 4.5”, “buffer” for “buffer (Cytiva, BR100350)”, “200” for “5000”
# (§3) After various FGFRs (FGFR1 Protein, Human, Recombinant (His Tag) (Sino Biological, 10616-H08H), FGFR2 Protein, Human, Recombinant (His Tag) (Sino Biological, 10824-H08H), FGFR3 Protein, Human, Recombinant (ECD, His Tag) (Sino Biological, 16044-H08H), FGFR4 Protein, Human, Recombinant (His Tag) (Sino Biological, 10538-H08H)) diluted with HBS-EP to 1 μmol/L at 25° C. was added to each flow channel of the cyclic peptide-immobilized sensor chip prepared above, for 10 minutes, HBS-EP was allowed to flow as a running buffer for 30 minutes, and the binding of various FGFRs to the cyclic peptide was measured. Thereafter, a regeneration treatment of removing the bound FGFR was performed by repeating the flow of a regeneration liquid in which sodium chloride (final concentration: 0.4 mol/L) and a sodium dodecyl sulfate aqueous solution (mixed concentration: 1%, final concentration: 0.2%) were dissolved in Glysine 1.5 (Cytiva, BR100354) for 1 minute in each flow channel twice. The binding amount of the cyclic peptide was evaluated from the difference between the measured value of Biacore-T200 in the flow channel in which the cyclic peptide was immobilized and the measured value of Biacore-T200 in the flow channel in which the cyclic peptide was not immobilized, in a case where 1 μmol/L FGFR was allowed to flow.
# (§4) The binding amount of FGFR evaluated above was normalized to the binding amount of FGFR molecules per one molecule of the cyclic peptide using the molecular weights of the cyclic peptide and FGFR, and the binding affinity to FGFR was evaluated according to the following evaluation criteria. The evaluation result preferably satisfies the evaluation criteria A, B, or C.
# [3] = target: T3, FGFR2 Protein, Human, Recombinant (His Tag) (Homo sapiens, UniProt P21802); assay: SPR FGFR versatility, peptide immobilized; conditions: SPR binding amount at 1 μmol/L FGFR, 25° C., per one molecule of immobilized cyclic peptide
# T3 construct: His; purchased Sino Biological 10824-H08H
# Method: as §2
# as §1, with “a cyclic peptide” for “Recombinant Human FGFR2 alpha (IIIc) Fc Chimera Protein CF (R&D systems, 712-FR-050)”, “to 2 mg/mL” for “at 50 nmol/L”, “HBS-EP” for “an Acetate 4.5”, “buffer” for “buffer (Cytiva, BR100350)”, “200” for “5000”
# as §3, §4
# [4] = target: T4, FGFR3 Protein, Human, Recombinant (ECD, His Tag) (Homo sapiens, UniProt P22607); assay: SPR FGFR versatility, peptide immobilized; conditions: SPR binding amount at 1 μmol/L FGFR, 25° C., per one molecule of immobilized cyclic peptide
# T4 construct: FGFR3 Protein, Human, Recombinant (ECD, His Tag) (Sino Biological, 16044-H08H); His; purchased Sino Biological 16044-H08H
# T4 sequence (P22607 23-375 limits assumed): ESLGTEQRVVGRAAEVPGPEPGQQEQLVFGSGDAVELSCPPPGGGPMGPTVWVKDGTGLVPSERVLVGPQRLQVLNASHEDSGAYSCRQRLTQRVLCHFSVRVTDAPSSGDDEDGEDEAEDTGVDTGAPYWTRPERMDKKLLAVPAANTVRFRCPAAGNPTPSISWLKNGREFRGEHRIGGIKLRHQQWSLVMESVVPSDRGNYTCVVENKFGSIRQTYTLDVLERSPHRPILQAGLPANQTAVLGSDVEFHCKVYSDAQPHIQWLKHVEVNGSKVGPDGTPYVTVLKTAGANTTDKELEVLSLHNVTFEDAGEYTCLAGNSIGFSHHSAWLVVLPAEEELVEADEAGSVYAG
# Method: as §2
# as §1, with “a cyclic peptide” for “Recombinant Human FGFR2 alpha (IIIc) Fc Chimera Protein CF (R&D systems, 712-FR-050)”, “to 2 mg/mL” for “at 50 nmol/L”, “HBS-EP” for “an Acetate 4.5”, “buffer” for “buffer (Cytiva, BR100350)”, “200” for “5000”
# as §3, §4
# [5] = target: T5, FGFR4 Protein, Human, Recombinant (His Tag) (Homo sapiens, UniProt P22455); assay: SPR FGFR versatility, peptide immobilized; conditions: SPR binding amount at 1 μmol/L FGFR, 25° C., per one molecule of immobilized cyclic peptide
# T5 construct: His; purchased Sino Biological 10538-H08H
# Method: as §2
# as §1, with “a cyclic peptide” for “Recombinant Human FGFR2 alpha (IIIc) Fc Chimera Protein CF (R&D systems, 712-FR-050)”, “to 2 mg/mL” for “at 50 nmol/L”, “HBS-EP” for “an Acetate 4.5”, “buffer” for “buffer (Cytiva, BR100350)”, “200” for “5000”
# as §3, §4
# [6] = Molecular stability after reducing agent (DTT) treatment, LC; type: physicochemical; conditions: residual rate after DTT aqueous solution, room temperature, 1 hour
# Method: The molecular stability of the cyclic peptide was evaluated by analyzing an aqueous solution of the cyclic peptide treated with a reducing agent by liquid chromatography (LC).
# The reducing agent treatment was performed under the following conditions based on the concentration of glutathione contained in the cells. 25 μL of a 0.2 mg/mL cyclic peptide aqueous solution was prepared, 58.8 μL of a 12.6 mmol/L DTT aqueous solution was added to the aqueous solution, and the mixture was incubated at room temperature for 1 hour to obtain an aqueous solution of the cyclic peptide treated with a reducing agent. The DTT aqueous solution was used by diluting a 1 mol/L (+−)-dithiothreitol (DTT) solution (FUJIFILM Wako Pure Chemical Corporation, 044-33871) with water. The total area of all the peaks in LC/MS of the cyclic peptide before the reducing agent treatment was set to 100%, and the proportion of the total area of all the peaks in LC/MS of the aqueous solution of the cyclic peptide treated with the reducing agent was determined to calculate the residual rate of the cyclic peptide, and the molecular stability was evaluated according to the following evaluation criteria. The evaluation result preferably satisfies the evaluation criteria A, B, or C.
# The LC used for the evaluation of molecular stability was set to the following conditions. • LC device: Prominence series (pump, column oven, autosampler, detector) (manufactured by Shimadzu Corporation) • Detector: photodiode array detector (SPD-M20A), measurement wavelength of 280 nm • Column: TSKgel ODS-100V, inner diameter of 4.6 mm×length of 150 mm, particle diameter of 5 μm (manufactured by Tosoh Corporation) • Eluent A: solution containing 0.1% trifluoroacetic acid as solute, and solvent is 100% water • Eluent B: solution containing 0.1% trifluoroacetic acid as solute, and solvent is 100% acetonitrile • Flow rate: 1.0 mL/min • Injection amount: 25 μL • Gradient: 20% to 50%: Eluent B (0 to 15 minutes), 100%: Eluent B (15 minutes) • Column temperature: 40° C.
# T3 sequence (P21802 22-821): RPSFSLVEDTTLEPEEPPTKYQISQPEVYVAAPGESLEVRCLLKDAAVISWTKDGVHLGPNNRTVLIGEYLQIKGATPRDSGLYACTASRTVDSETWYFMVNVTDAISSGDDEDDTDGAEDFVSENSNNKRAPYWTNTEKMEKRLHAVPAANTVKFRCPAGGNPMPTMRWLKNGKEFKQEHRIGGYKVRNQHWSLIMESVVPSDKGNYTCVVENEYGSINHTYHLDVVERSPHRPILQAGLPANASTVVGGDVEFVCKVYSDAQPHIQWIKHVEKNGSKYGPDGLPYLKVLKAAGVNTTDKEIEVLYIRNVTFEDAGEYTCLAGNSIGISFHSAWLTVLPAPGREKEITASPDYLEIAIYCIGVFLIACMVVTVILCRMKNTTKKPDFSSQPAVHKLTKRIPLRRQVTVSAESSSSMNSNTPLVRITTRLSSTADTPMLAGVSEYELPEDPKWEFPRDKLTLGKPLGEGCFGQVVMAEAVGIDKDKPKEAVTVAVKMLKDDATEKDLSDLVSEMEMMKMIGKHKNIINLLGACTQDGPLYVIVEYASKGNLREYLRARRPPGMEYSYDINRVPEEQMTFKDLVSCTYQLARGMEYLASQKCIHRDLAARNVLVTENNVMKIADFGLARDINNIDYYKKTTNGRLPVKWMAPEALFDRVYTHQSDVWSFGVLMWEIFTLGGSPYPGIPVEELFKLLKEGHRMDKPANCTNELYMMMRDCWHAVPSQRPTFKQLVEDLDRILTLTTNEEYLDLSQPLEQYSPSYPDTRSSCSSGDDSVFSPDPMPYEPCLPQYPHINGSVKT
# T2 sequence (P11362 22-822): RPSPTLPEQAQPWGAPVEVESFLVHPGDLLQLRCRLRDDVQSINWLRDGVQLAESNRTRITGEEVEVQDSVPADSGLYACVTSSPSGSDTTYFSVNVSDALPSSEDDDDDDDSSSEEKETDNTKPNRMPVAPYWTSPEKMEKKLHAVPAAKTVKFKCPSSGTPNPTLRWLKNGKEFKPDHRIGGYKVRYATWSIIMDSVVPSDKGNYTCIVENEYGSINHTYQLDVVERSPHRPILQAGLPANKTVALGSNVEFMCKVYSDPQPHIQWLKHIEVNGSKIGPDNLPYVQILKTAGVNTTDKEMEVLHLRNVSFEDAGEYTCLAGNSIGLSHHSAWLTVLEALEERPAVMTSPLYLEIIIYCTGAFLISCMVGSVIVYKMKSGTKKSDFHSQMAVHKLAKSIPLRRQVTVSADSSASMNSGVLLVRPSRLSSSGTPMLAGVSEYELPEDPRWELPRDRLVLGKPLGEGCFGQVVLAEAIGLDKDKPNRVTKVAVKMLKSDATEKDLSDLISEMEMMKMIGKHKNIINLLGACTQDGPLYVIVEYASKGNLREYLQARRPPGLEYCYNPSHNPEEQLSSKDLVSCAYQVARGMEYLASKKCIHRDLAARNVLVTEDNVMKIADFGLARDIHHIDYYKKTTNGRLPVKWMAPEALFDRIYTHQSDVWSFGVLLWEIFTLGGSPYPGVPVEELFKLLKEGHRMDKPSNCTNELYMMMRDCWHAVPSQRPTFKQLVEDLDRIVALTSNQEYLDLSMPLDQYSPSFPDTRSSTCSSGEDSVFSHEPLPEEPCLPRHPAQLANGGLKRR
# T5 sequence (P22455 22-802): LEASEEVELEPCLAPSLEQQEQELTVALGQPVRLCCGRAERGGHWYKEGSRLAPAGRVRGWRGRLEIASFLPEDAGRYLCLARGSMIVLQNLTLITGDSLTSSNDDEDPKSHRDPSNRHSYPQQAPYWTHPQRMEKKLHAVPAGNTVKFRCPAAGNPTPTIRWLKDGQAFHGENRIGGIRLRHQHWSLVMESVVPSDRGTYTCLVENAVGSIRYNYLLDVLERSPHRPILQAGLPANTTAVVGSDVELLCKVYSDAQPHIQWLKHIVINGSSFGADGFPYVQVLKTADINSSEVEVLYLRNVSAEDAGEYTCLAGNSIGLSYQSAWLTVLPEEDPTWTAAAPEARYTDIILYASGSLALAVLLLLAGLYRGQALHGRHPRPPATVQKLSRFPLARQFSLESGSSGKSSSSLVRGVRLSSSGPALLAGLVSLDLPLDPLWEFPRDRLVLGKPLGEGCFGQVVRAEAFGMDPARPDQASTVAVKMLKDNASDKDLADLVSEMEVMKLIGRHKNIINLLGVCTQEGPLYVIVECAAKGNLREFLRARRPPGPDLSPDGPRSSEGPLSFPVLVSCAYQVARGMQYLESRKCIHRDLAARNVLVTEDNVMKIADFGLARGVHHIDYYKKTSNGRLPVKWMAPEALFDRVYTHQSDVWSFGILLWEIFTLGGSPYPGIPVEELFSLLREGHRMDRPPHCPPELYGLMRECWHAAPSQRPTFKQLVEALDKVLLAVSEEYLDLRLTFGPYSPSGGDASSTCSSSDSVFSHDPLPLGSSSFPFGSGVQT
# T1 sequence (P21802 with tags, fused parts or gaps limits assumed): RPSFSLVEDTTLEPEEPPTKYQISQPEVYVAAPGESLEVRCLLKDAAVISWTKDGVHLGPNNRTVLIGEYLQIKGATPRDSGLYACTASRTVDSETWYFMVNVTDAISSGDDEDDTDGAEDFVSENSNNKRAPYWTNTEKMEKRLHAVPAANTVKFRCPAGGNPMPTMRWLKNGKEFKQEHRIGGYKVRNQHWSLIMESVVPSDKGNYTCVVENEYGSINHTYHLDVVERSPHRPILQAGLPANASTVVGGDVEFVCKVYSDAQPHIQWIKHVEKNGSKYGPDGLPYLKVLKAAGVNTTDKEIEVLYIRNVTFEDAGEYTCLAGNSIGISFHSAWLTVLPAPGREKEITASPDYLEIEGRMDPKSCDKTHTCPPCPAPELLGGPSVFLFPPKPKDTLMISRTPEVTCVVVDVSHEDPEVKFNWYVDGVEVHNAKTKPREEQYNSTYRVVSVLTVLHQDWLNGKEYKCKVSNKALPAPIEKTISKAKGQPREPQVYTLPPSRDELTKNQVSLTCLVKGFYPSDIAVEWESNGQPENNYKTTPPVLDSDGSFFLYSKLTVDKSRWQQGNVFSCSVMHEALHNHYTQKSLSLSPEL
substance,measurement,setting,value
450 (YCEENYLDPEQYQYFIYFK(COCH2)YKKK; thioether 2-19) [compound 450],Evaluation result of binding affinity to FGFR,[1],A (The binding amount is 0.7 molecules of the cyclic peptide/one molecule of FGFR or more.)
same,Evaluation result of binding affinity to FGFR1,[2],B (The binding amount is 0.01 molecules of FGFR/one molecule of the cyclic peptide or more and less than 0.05 molecules of FGFR/one molecule of the cyclic peptide.)
same,Evaluation result of binding affinity F GFR2,[3],A (The binding amount is 0.05 molecules of FGFR/one molecule of the cyclic peptide or more.)
same,Evaluation result of binding affinity to FGFR3,[4],B (The binding amount is 0.01 molecules of FGFR/one molecule of the cyclic peptide or more and less than 0.05 molecules of FGFR/one molecule of the cyclic peptide.)
same,Evaluation result of binding affinity to FGFR4,[5],B (The binding amount is 0.01 molecules of FGFR/one molecule of the cyclic peptide or more and less than 0.05 molecules of FGFR/one molecule of the cyclic peptide.)
same,Evaluation result of reductive stability,[6],B (The residual rate of the cyclic peptide is 70% or more and less than 90%)
